To fix the notation:
B1: CPEB3 Ribozyme (parent)
chain: GGGGGCCACAGCAGAAGCGUUCACGUCGCGGCCCCUGUCAGAUUCUGGUGAAUCUGCGAAUUCUGCUGU

Experimental findings from the RNAGym collection of RNA variant scans (doi:10.7554/elife.80360) are described below.

In the series the parent is B1. The series is described as follows: self-cleavage, relative activity (ratio to wild type); higher = more cleavage; co-transcriptional.
In the case of A23G U43A, the self-cleavage was 0.877.
In the case of A23G U43C, the self-cleavage is 0.937.
Regarding A23G U43G, the self-cleavage was found to be 0.721.
The same measure for C24G G25C: 0.152.
With C24G G25A, the self-cleavage turned out to be 0.22.
Next, A23U G28C: 0.217; A23U G28U: 0.148; C24G G28A: 0.14.
Consider A23G G37C, for which the self-cleavage was 0.214.
Turning to A23G G37A, the self-cleavage was found to be 0.254.
Next, A23G G37U: 0.22; A23U C27G: 0.164; A23U C27A: 0.734.
Next, A23U C27U: 0.29; A23U G48A: 0.984.
The same measure for A23U G48U: 1.01.
For the variant A23U C35G, the self-cleavage stood at 0.658.
Next, A23U C35U: 0.974; A23G U46C: 0.906.
With A23U U46G, the self-cleavage came out at 1.
The same measure for A23U U46A: 0.955; for A23U U46C: 0.964.
With A23U U62A, the self-cleavage turned out to be 0.635.
The same measure for A23G C54A: 0.712.
The same measure for A23G C54G: 0.919.
Next, A23G C54U: 0.964.
Consider C24A A51C, for which the self-cleavage amounted to 0.68.
The same measure for C24A A51G: 0.754.
On to C24G A60C, for which the self-cleavage is 0.205.
The same measure for C24G A60U: 0.226; for C24A C63U: 0.699; for C24A C63A: 0.357.
In the case of A23U C54A, the self-cleavage amounted to 0.901.
As for A23U C54G, the self-cleavage amounted to 0.943.
As to A23U C54U, the self-cleavage is 1.02.
Next, A23U U67C: 1; A23U U67A: 0.975; A23U U67G: 0.979.
For C24A C33G, the self-cleavage is 0.33.
Next, C24A C33U: 0.761.
The same measure for C24A C33A: 0.38; for C24A U67A: 0.751; for C24A U67G: 0.693.
Next, A23U A60U: 0.66; A23U A60C: 0.385.
Turning to A23U A60G, the self-cleavage is 0.642.
In the case of A23G U38C, the self-cleavage was determined as 0.946.
Consider A23G U38G, for which the self-cleavage came to 0.245.
On to A23G U38A, for which the self-cleavage is 0.897.
Next, A23U G25A: 0.214; A23U G25U: 0.144; A23U G25C: 0.185.
Next, A23G G25A: 0.156.
With A23G G25U, the self-cleavage amounted to 0.177.
The same measure for A23U U26G: 0.92; for A23U U26C: 1.04.
Next, A23U U26A: 0.914.
The same measure for A23G G65U: 0.554.
Regarding A23G G65A, the self-cleavage came out at 0.752.
The same measure for A23G G65C: 0.537; for C24A U55G: 0.289; for C24A C32U: 0.729.
Next, C24A C32A: 0.31; A23U U36A: 0.222; A23U U36C: 0.996.
A23U U36G: the self-cleavage was found to be 0.35.
Next, C24A U62A: 0.364; C24A U62C: 0.402.
Take A23G C27U: the self-cleavage worked out at 0.222.
On to A23G C27A, for which the self-cleavage stood at 0.303.
Next, C24A U53G: 0.506; C24A U53C: 0.603; C24A U53A: 0.537.
The same measure for A23G C63U: 0.95; for A23G C63A: 0.681; for A23G C63G: 0.521.
The same measure for C24A G58A: 0.4; for C24A G58U: 0.773.
Take A23U C32U: the self-cleavage was 1.01.
The same measure for A23U C32G: 0.71; for A23U C57U: 0.28.
The same measure for A23U C57A: 0.288; for A23G G28U: 0.137; for A23G C24U: 0.833.
The same measure for A23G C24G: 0.36; for A23G C24A: 0.711.
Consider A23G G48U, for which the self-cleavage is 0.972.
In the case of A23G G48C, the self-cleavage was determined as 0.975.
For the variant C24A C54U, the self-cleavage is 0.854.
As for A23G C35G, the self-cleavage was 0.336.
Turning to A23G C35A, the self-cleavage came out at 0.215.
As for C24G C63A, the self-cleavage came to 0.237.
For the variant C24G C63G, the self-cleavage amounted to 0.199.
The same measure for C24G C63U: 0.339.
Next, A23U G41C: 0.912.
The same measure for A23U G41U: 0.868.
As to A23U G41A, the self-cleavage turned out to be 0.821.
In the case of A23G C33A, the self-cleavage is 0.679.
Turning to A23G C33G, the self-cleavage stood at 0.262.
Take A23G C33U: the self-cleavage was 0.939.
C24A G47A: the self-cleavage was found to be 0.771.
Next, A23U C63U: 1.01; A23U C63A: 0.886; A23U C63G: 0.858.
For the variant C24G A42G, the self-cleavage is 0.404.
The same measure for C24G A42U: 0.418; for A23U U53G: 0.959.
Next, A23U U53A: 0.903.
Take A23U U53C: the self-cleavage was 0.928.
The same measure for C24A C29G: 0.166; for C24A C29U: 0.158.
For C24A C29A, the self-cleavage was found to be 0.27.
Next, A23U C66U: 0.964.
The same measure for A23U C66G: 0.848; for A23G U36C: 0.891.
Next, A23G U36A: 0.241.
Take A23G U36G: the self-cleavage was 0.227.
Take C24G C29A: the self-cleavage stood at 0.184.
The same measure for A23U U43A: 0.954; for A23U U43C: 0.931; for C24A U43A: 0.537.
Next, C24A U43G: 0.427; A23U C34A: 0.956.
A23U C34G: the self-cleavage was 0.819.
As to A23U C39A, the self-cleavage came to 0.87.
On to A23U C39G, for which the self-cleavage is 1.02.
The same measure for A23U C39U: 0.921.
The same measure for A23U U49C: 0.981.
Turning to A23U U49G, the self-cleavage amounted to 0.936.
Next, A23U U49A: 1.03; C24G: 0.499.
For C24A, the self-cleavage came out at 0.77.
In the case of C24A U36A, the self-cleavage was 0.173.
Consider C24A U36G, for which the self-cleavage is 0.205.
The same measure for A23U: 1; for A23U A51U: 0.995.
Next, A23U A51C: 0.995; A23U A52G: 0.642.
The same measure for A23U A52U: 0.996; for A23U A52C: 1.04; for C24A G28C: 0.129.
In the case of C24A G28U, the self-cleavage turned out to be 0.127.
The same measure for C24A G28A: 0.187; for C24A C57G: 0.219.
In the case of C24A C57U, the self-cleavage was 0.248.
A23G G30A: the self-cleavage is 0.79.
The same measure for A23G G30C: 0.432; for A23G G30U: 0.229; for A23G C32U: 0.976.
Next, A23G C32A: 0.436.
The same measure for C24A G37A: 0.229.
As to C24A G37C, the self-cleavage amounted to 0.264.
Next, A23G U67C: 0.925; A23G U67A: 1.03.
Next, A23G U67G: 0.992; A23U G31C: 0.215; A23U G31U: 0.842.
Consider C24G A40G, for which the self-cleavage was 0.363.
Consider C24G A40C, for which the self-cleavage worked out at 0.198.
On to A23U G30A, for which the self-cleavage came to 0.96.
The same measure for A23U G30U: 0.547; for A23U G30C: 0.786.
The same measure for A23G U44A: 0.923.
Next, A23G U44C: 0.904; A23G U44G: 1.02.
C24A G68A: the self-cleavage was 0.87.
As for C24A G68U, the self-cleavage came out at 0.834.
